In the supplement of paper PMC10567573 one finds protein stability index data, which are given here for 97 variants.

To fix the notation:
B1: ZBED1 (parent)
chain: EQVFSLGDGVSGGFFGIRDSSFL
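Note: lentivirally expressed fusions sorted by FACS into six bins by GFP to DsRed ratio, PSI derived from sequencing read proportions per bin multiplied by bin number.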

In this data set the parent is B1. Briefly: protein stability index of a GFP-peptide fusion (GPS, HEK-293T) (PSI 1-6); higher = more stable. As to conditions: c terminus: native.
EQVFSQGDGVSGGFFGIRDSSFL [L6Q]: the protein stability index was 3.5.

With EQVFSRGDGVSGGFFGIRDSSFL [L6R], the protein stability index was 4.26.

In the case of EQVFSLGDGVEGGFFGIRDSSFL [S11E], the protein stability index is 4.02.

EQVFSLGDGVGGGFFGIRDSSFL [S11G]: the protein stability index stood at 3.26.

As for EQVFSLGDGVHGGFFGIRDSSFL [S11H], the protein stability index was determined as 3.15.

With EQVFSLGDGVQGGFFGIRDSSFL [S11Q], the protein stability index amounted to 3.05.

For EQVFSLGDGVVGGFFGIRDSSFL [S11V], the protein stability index was found to be 2.9.

EQVFSLGDGVFGGFFGIRDSSFL [S11F]: the protein stability index is 2.35.

Take EQVFSLGDGVTGGFFGIRDSSFL [S11T]: the protein stability index stood at 3.18.

As for EQVFSLGDGVMGGFFGIRDSSFL [S11M], the protein stability index is 2.81.

In the case of EQVFSLGDGVCGGFFGIRDSSFL [S11C], the protein stability index was 2.48.

For EQVFSLGDGVAGGFFGIRDSSFL [S11A], the protein stability index is 3.73.

For EQVFSLGDGVNGGFFGIRDSSFL [S11N], the protein stability index was determined as 3.63.

EQVFSLGDGVLGGFFGIRDSSFL [S11L]: the protein stability index was found to be 3.09.

For the variant EQVFSLGDGVWGGFFGIRDSSFL [S11W], the protein stability index was 2.39.

EQVFSLGDGVDGGFFGIRDSSFL [S11D]: the protein stability index turned out to be 4.01.

As for EQVFSLGDGVRGGFFGIRDSSFL [S11R], the protein stability index is 2.89.

With EQVFSLGDGVYGGFFGIRDSSFL [S11Y], the protein stability index came to 2.17.

Consider EQVFSLGDGVPGGFFGIRDSSFL [S11P], for which the protein stability index was 2.76.

As for EQVFSLGDGVKGGFFGIRDSSFL [S11K], the protein stability index was found to be 3.11.

Turning to EQVFSLGDGVIGGFFGIRDSSFL [S11I], the protein stability index was found to be 2.

On to EQVFSLGDGVSGRFFGIRDSSFL [G13R], for which the protein stability index was 2.96.

EQVFSLGDGVSGSFFGIRDSSFL [G13S]: the protein stability index came to 3.49.

For EQVFSLGDGVSGWFFGIRDSSFL [G13W], the protein stability index came out at 1.82.

Consider EQVFSLGDGVSGPFFGIRDSSFL [G13P], for which the protein stability index was 3.49.

On to EQVFSLGDGVSGFFFGIRDSSFL [G13F], for which the protein stability index was determined as 1.98.

In the case of EQVFSLGDGVSGCFFGIRDSSFL [G13C], the protein stability index was found to be 3.08.

On to EQVFSLGDGVSGKFFGIRDSSFL [G13K], for which the protein stability index worked out at 3.08.

As to EQVFSLGDGVSGMFFGIRDSSFL [G13M], the protein stability index turned out to be 2.2.

For EQVFSLGDGVSGQFFGIRDSSFL [G13Q], the protein stability index was 3.48.

Turning to EQVFSLGDGVSGIFFGIRDSSFL [G13I], the protein stability index came to 1.99.

For the variant EQVFSLGDGVSGDFFGIRDSSFL [G13D], the protein stability index came out at 3.73.

In the case of EQVFSLGDGVSGTFFGIRDSSFL [G13T], the protein stability index is 3.17.

Consider EQVFSLGDGVSGYFFGIRDSSFL [G13Y], for which the protein stability index stood at 2.04.

Consider EQVFSLGDGVSGEFFGIRDSSFL [G13E], for which the protein stability index came to 4.08.

On to EQVFSLGDGVSGHFFGIRDSSFL [G13H], for which the protein stability index was found to be 3.41.

As for EQVFSLGDGVSGNFFGIRDSSFL [G13N], the protein stability index came to 3.58.

As for EQVFSLGDGVSGVFFGIRDSSFL [G13V], the protein stability index was 2.22.

EQVFSLGDGVSGAFFGIRDSSFL [G13A]: the protein stability index is 3.28.

EQVFSLGDGVSGLFFGIRDSSFL [G13L]: the protein stability index stood at 2.23.

As to EQVFSLGIGVSGGFFGIRDSSFL [D8I], the protein stability index was determined as 1.41.

Consider EQVFSLGAGVSGGFFGIRDSSFL [D8A], for which the protein stability index came to 2.7.

For EQVFSLGSGVSGGFFGIRDSSFL [D8S], the protein stability index is 3.22.

Regarding EQVFSLGEGVSGGFFGIRDSSFL [D8E], the protein stability index is 3.04.

For the variant EQVFSLGPGVSGGFFGIRDSSFL [D8P], the protein stability index was 2.73.

As to EQVFSLGRGVSGGFFGIRDSSFL [D8R], the protein stability index is 2.61.

With EQVFSLGWGVSGGFFGIRDSSFL [D8W], the protein stability index was 1.91.

Consider EQVFSLGNGVSGGFFGIRDSSFL [D8N], for which the protein stability index was 2.88.

For the variant EQVFSLGHGVSGGFFGIRDSSFL [D8H], the protein stability index is 2.73.

Consider EQVFSLGCGVSGGFFGIRDSSFL [D8C], for which the protein stability index was found to be 2.07.

Take EQVFSLGFGVSGGFFGIRDSSFL [D8F]: the protein stability index is 1.61.

For EQVFSLGLGVSGGFFGIRDSSFL [D8L], the protein stability index turned out to be 1.99.

Turning to EQVFSLGKGVSGGFFGIRDSSFL [D8K], the protein stability index was determined as 2.69.

As for EQVFSLGTGVSGGFFGIRDSSFL [D8T], the protein stability index turned out to be 2.91.

EQVFSLGYGVSGGFFGIRDSSFL [D8Y]: the protein stability index is 2.01.

Take EQVFSLGQGVSGGFFGIRDSSFL [D8Q]: the protein stability index was found to be 2.73.

In the case of EQVFSLGMGVSGGFFGIRDSSFL [D8M], the protein stability index is 1.47.

For the variant EQVFSLGGGVSGGFFGIRDSSFL [D8G], the protein stability index stood at 3.24.

As to EQVFSLGVGVSGGFFGIRDSSFL [D8V], the protein stability index was determined as 1.57.

On to EQVFSLGDGPSGGFFGIRDSSFL [V10P], for which the protein stability index was determined as 3.86.

With EQVFSLGDGWSGGFFGIRDSSFL [V10W], the protein stability index turned out to be 2.61.

Consider EQVFSLGDGNSGGFFGIRDSSFL [V10N], for which the protein stability index is 3.8.

For EQVFSLGDGMSGGFFGIRDSSFL [V10M], the protein stability index amounted to 2.57.

For the variant EQVFSLGDGKSGGFFGIRDSSFL [V10K], the protein stability index turned out to be 3.6.

Consider EQVFSLGDGLSGGFFGIRDSSFL [V10L], for which the protein stability index turned out to be 3.

Consider EQVFSLGDGHSGGFFGIRDSSFL [V10H], for which the protein stability index came to 3.55.

Regarding EQVFSLGDGYSGGFFGIRDSSFL [V10Y], the protein stability index turned out to be 3.38.

Regarding EQVFSLGDGDSGGFFGIRDSSFL [V10D], the protein stability index came to 3.78.

Turning to EQVFSLGDGTSGGFFGIRDSSFL [V10T], the protein stability index amounted to 3.78.

As to EQVFSLGDGFSGGFFGIRDSSFL [V10F], the protein stability index is 2.75.

With EQVFSLGDGGSGGFFGIRDSSFL [V10G], the protein stability index stood at 3.89.

As to EQVFSLGDGRSGGFFGIRDSSFL [V10R], the protein stability index worked out at 4.32.

As for EQVFSLGDGQSGGFFGIRDSSFL [V10Q], the protein stability index turned out to be 3.92.

With EQVFSLGDGASGGFFGIRDSSFL [V10A], the protein stability index is 3.87.

Consider EQVFSLGDGESGGFFGIRDSSFL [V10E], for which the protein stability index was 3.62.

Consider EQVFSLGDGISGGFFGIRDSSFL [V10I], for which the protein stability index was 2.92.

With EQVFSLGDGCSGGFFGIRDSSFL [V10C], the protein stability index was 3.35.

With EQVFSLGDGSSGGFFGIRDSSFL [V10S], the protein stability index worked out at 4.03.

With EQVFSLGDGVSGGIFGIRDSSFL [F14I], the protein stability index was found to be 3.21.

As to EQVFSLGDGVSGGYFGIRDSSFL [F14Y], the protein stability index stood at 3.18.

Turning to EQVFSLGDGVSGGWFGIRDSSFL [F14W], the protein stability index came to 3.44.

Turning to EQVFSLGDGVSGGPFGIRDSSFL [F14P], the protein stability index is 4.08.

Turning to EQVFSLGDGVSGGKFGIRDSSFL [F14K], the protein stability index amounted to 4.3.

Consider EQVFSLGDGVSGGHFGIRDSSFL [F14H], for which the protein stability index worked out at 4.24.

As for EQVFSLGDGVSGGEFGIRDSSFL [F14E], the protein stability index was 4.11.

Regarding EQVFSLGDGVSGGAFGIRDSSFL [F14A], the protein stability index was found to be 3.82.

As for EQVFSLGDGVSGGCFGIRDSSFL [F14C], the protein stability index is 4.21.

As to EQVFSLGDGVSGGLFGIRDSSFL [F14L], the protein stability index turned out to be 3.67.

As to EQVFSLGDGVSGGNFGIRDSSFL [F14N], the protein stability index turned out to be 4.62.

As for EQVFSLGDGVSGGSFGIRDSSFL [F14S], the protein stability index is 3.71.

Take EQVFSLGDGVSGGGFGIRDSSFL [F14G]: the protein stability index was found to be 4.44.

For the variant EQVFSLGDGVSGGVFGIRDSSFL [F14V], the protein stability index worked out at 3.

Consider EQVFSLGDGVSGGTFGIRDSSFL [F14T], for which the protein stability index is 4.12.

Regarding EQVFSLGDGVSGGRFGIRDSSFL [F14R], the protein stability index was 4.

Take EQVFSLGDGVSGGMFGIRDSSFL [F14M]: the protein stability index amounted to 3.74.

For EQVFSLGDGVSGGQFGIRDSSFL [F14Q], the protein stability index worked out at 4.45.

Turning to EQVFSLGDGVSGGDFGIRDSSFL [F14D], the protein stability index was 4.16.
